# B1: DLX-2323 (scFv)
# scFv: EIVMTQSPSTLSASVGDRVIITCQASQSIDNWLSWYQQKPGKAPKLLIYRASTLASGVPSRFSGSGSGAEFTLTISSLQPDDFATYYCQNTGGGVSIAFGQGTKLTVLGGGGGSGGGGSGGGGSGGGGSEVQLVESGGGLVQPGGSLRLSCTASGFSLSSAAMAWVRQAPGKGLEWVGIIYDSASTYYASWAKGRFTISRDTSKNTVYLQMNSLRAEDTAVYYCARERAIFSGDFVLWGQGTLVTVSS
# notes: Humanized single chain antibody fragment expressed in E. coli (inclusion bodies)
# B2: canakinumab (antibody, V domains shown)
# VH: QVQLVESGGGVVQPGRSLRLSCAASGFTFSVYGMNWVRQAPGKGLEWVAIIWYDGDNQYYADSVKGRFTISRDNSKNTLYLQMNGLRAEDTAVYYCARDLRTGPFDYWGQGTLVTVSS
# VL: EIVLTQSPDFQSVTPKEKVTITCRASQSIGSSLHWYQQKPDQSPKLLIKYASQSFSGVPSRFSGSGSGTDFTLTINSLEAEDAAAYYCHQSSSLPFTFGPGTKVDIKR
# What was measured:
# recombinant human IL-1β [1] = biological target: T1, recombinant human IL-1β (human, UniProt P01584 117-269); assay: cell-based or functional assay
# recombinant human IL-1β [2] = biological target: T1, recombinant human IL-1β; assay: cell-based or functional assay; remark: listed apart in the source
# Cynomolgus rIL-1β = biological target: T2, Cynomolgus rIL-1β (cynomolgus, UniProt P79182 117-268, limits assumed); assay: cross-reactivity table (direct ELISA)
# T2 construct: also called cynomolgus IL-1β
# T2 sequence (P79182 117-268 limits assumed): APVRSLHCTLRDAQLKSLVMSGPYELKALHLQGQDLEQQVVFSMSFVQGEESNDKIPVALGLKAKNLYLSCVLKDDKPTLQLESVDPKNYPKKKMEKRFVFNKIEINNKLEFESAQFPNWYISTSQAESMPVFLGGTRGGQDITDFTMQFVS
# Method: (§1) Plate wells were coated with each protein and incubated overnight at 4° C.
# Rhesus monkey rIL-1β = biological target: T3, Rhesus monkey rIL-1β (rhesus monkey, UniProt P48090 117-269); assay: cross-reactivity table (direct ELISA)
# T3 construct: also called rhesus macaque IL-1β; rhesus IL-1β
# T3 sequence (P48090 117-269 limits assumed): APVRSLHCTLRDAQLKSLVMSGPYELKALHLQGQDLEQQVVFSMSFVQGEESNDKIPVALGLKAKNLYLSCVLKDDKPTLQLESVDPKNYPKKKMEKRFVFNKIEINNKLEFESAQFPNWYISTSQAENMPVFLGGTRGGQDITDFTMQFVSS
# Method: as §1
# recombinant human IL-1β [3] = biological target: T1, recombinant human IL-1β; assay: Kinetic Exclusion Assay (KinExA, Sapidyne)
# Source text: Kd is a specific type of equilibrium constant that measures the propensity of a larger object to separate (dissociate) reversibly into smaller components. A Kd analysis requires immobilization of one interaction partner (the […] binding partner) to a solid phase which is then used as a probe to capture the other interaction partner. For each experiment, one of the binding partners is titrated in a background of the captured binding partner (CBP) and allowed to reach equilibrium. The solutions are then briefly exposed to the solid phase and a portion of free CBP is captured. The captured CBP is then labelled with a fluorescent secondary molecule. The signals generated from CBP are used to calculate the Kd value which is directly proportional to the concentration of free CBP in the equilibrated sample.
# recombinant canine IL-1β = biological target: T4, recombinant canine IL-1β (canine, UniProt Q28292 115-266, limits assumed); assay: cross-reactivity table (Table 2), direct ELISA; text: no detectable binding to canine IL-1β
# T4 construct: also called Canine rIL-1β
# T4 sequence (looked up): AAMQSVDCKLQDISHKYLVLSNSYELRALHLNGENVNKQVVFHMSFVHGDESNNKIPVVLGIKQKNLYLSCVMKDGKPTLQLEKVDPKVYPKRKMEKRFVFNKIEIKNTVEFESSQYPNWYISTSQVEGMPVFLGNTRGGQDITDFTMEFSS
# Method: Recombinant human IL-1β 1 mg/ml was diluted with the coating buffer to a final concentration of 2 μg/ml. 50 μl was added to the designated wells. Canine IL-1β, porcine/swine IL-1β, guinea pig IL-1β, human IL-1ra and human IL-6 were diluted in the coating buffer and added to distinct wells on the plates. Plates were incubated overnight at 4° C. […] The bound scFvs and control antibodies were detected with Protein L-Peroxidase L-HRP (1:3000), rabbit anti-goat HRP (1:5000) and streptavidin HRP (1:3000).
# recombinant human IL-1β [4] = biological target: T1, recombinant human IL-1β; assay: cell-based or functional assay; remark: listed apart in the source
Binder,"IC50, inhibition of IL-1β-induced IL-6 release from normal human dermal fibroblasts (IL-6 ELISA) (recombinant human IL-1β [1])","potency relative to IL-1RA, inhibition of IL-1β-induced IL-6 release (recombinant human IL-1β [1])",IC50 (column head of Table 2) (recombinant human IL-1β [2]),binding result (Cynomolgus rIL-1β),binding result (Rhesus monkey rIL-1β),Kd (recombinant human IL-1β [3]),koff (recombinant human IL-1β [3]),kon (recombinant human IL-1β [3]),binding result (recombinant canine IL-1β),"IC50 (read off the curve), inhibition of rhIL-1β-induced IL-6 release from human dermal fibroblasts (recombinant human IL-1β [4])"
B1,3 pM,10 fold,2 to 3 pM,binds,binds,0.756 pM,5.7e-06 s⁻¹,7.55e+06 M⁻¹ s⁻¹,no binding,–
B2,–,–,–,–,–,–,–,–,–,~60 pM
